Test results as given in patent US20220119534A1 (DRAGONFLY THERAPEUTICS, published 2022).
“And” between values parts separate entries of the source, which are not always exact repeats. Identical values can stand only once.

What was measured:
[1] = biological target: T1, mFc-hNKG2D (recombinant mFc-tagged human NKG2D dimer) (human, UniProt P26718 73-216); test: SPR; control sample
T1 construct: extracellular domain; Made in house; not shown: mouse Fc tag
T1 sequence (looked up): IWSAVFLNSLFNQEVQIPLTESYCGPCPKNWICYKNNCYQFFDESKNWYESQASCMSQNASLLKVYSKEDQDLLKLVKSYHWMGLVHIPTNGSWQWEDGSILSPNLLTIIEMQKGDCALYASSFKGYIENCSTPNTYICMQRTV

[2] = biological target: T2, Human CD16a V158 (FcγRIIIa V158) (human, UniProt P08637 17-208, biotinylated); test: SPR; control sample
T2 construct: Bought recombinant receptor; also called hCD16aV; hFcγRIIIa V158

[3] = biological target: T3, Human CLEC12A-His (recombinant, K244 WT) (human, UniProt Q5QGZ9 65-265); test: SPR, two-state fit (kd1)
T3 construct: Made in house (Dragonfly Tx); also called hCLEC12A; hCLEC12A-His; not shown: His tag
T3 sequence: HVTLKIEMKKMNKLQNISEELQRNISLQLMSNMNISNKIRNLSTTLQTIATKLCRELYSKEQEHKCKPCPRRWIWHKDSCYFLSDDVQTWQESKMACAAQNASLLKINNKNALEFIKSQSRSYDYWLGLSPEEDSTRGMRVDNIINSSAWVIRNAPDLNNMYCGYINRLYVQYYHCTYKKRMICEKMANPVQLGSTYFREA

Human CLEC12A-K244Q-His = biological target: T4, Human CLEC12A-K244Q-His (human, UniProt Q5QGZ9 65-265); test: SPR, two-state fit (kd1)
T4 construct: also called hCLEC12A (Q244); CLEC12A (Q244); not shown: His tag
T4 chain: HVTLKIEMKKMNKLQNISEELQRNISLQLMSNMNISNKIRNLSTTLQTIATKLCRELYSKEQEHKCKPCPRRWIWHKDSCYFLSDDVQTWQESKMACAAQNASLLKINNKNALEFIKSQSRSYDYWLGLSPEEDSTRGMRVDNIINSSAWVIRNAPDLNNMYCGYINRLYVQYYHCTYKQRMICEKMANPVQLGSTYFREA

[4] = biological target: T3, Human CLEC12A-His (recombinant, K244 WT); test: SPR, two-state fit; control sample
[5] = biological target: T3, Human CLEC12A-His (recombinant, K244 WT); test: SPR, two-state fit (kd1); control sample
[6] = biological target: T3, Human CLEC12A-His (recombinant, K244 WT); test: SPR, two-state fit (ka1); control sample
[7] = biological target: T2, Human CD16a V158 (FcγRIIIa V158); test: SPR 25C, biotinylated CD16a V158 captured
[8] = biological target: T3, Human CLEC12A-His (recombinant, K244 WT); test: SPR, two-state fit (kd1); after 4 wks 40C in HST pH 6.0
[9] = biological target: T3, Human CLEC12A-His (recombinant, K244 WT); test: SPR, two-state fit (ka1); fully purified protein after low pH hold

T2 sequence (P08637 17-208 F176V limits assumed): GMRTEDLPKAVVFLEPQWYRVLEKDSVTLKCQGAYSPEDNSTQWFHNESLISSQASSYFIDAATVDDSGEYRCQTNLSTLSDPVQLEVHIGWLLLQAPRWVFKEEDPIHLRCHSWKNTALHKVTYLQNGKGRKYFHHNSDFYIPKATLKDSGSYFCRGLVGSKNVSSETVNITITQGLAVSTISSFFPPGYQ

Kd [1]: 797 nM | koff [1]: 0.135 s⁻¹ | kon [1]: 169000 M⁻¹ s⁻¹ | Kd [2]: 322 nM | koff [2]: 0.0278 s⁻¹ | kon [2]: 86400 M⁻¹ s⁻¹ | koff [3]: 0.0398 s⁻¹ | koff (Human CLEC12A-K244Q-His): 0.00353 s⁻¹ | Kd [4]: 0.9 nM | koff [5]: 0.042 s⁻¹ | kon [6]: 1.01e+07 M⁻¹ s⁻¹ | Kd [7]: 336 nM and 343 nM and 321 nM | koff [7]: 0.0294 s⁻¹ and 0.0264 s⁻¹ and 0.0272 s⁻¹ | kon [7]: 87600 M⁻¹ s⁻¹ and 77000 M⁻¹ s⁻¹ and 84600 M⁻¹ s⁻¹ | koff [8]: 0.0424 s⁻¹ | kon [9]: 1.02e+07 M⁻¹ s⁻¹
B1: AB0089 TriNKET (bispecific antibody, human IgG1, kappa)
chain: QLQLQESGPGLVKPSETLSLTCTVSGFSLTNYGLHWIRQPPGKCLEWIGVIWVGGATDYNPSLKSRVTISVDTSKNQFSLKLSSVQAADTAVYYCAKGDYGDTLDYWGQGTLVTVSSGGGGSGGGGSGGGGSGGGGSDIQMTQSPSSLSASVGDRVTITCHASQNINFWLSWYQQKPGKAPKLLIYEASNLHTGVPSRFSGSGSGTDFTLTISSLQPEDFATYYCQQSHSYPLTFGCGTKLEIKGSDKTHTCPPCPAPELLGGPSVFLFPPKPKDTLMISRTPEVTCVVVDVSHEDPEVKFNWYVDGVEVHNAKTKPREEQYNSTYRVVSVLTVLHQDWLNGKEYKCKVSNKALPAPIEKTISKAKGQPREPRVYTLPPCRDELTKNQVSLTCLVKGFYPSDIAVEWESNGQPENNYKTTPPVLVSDGSFTLYSKLTVDKSRWQQGNVFSCSVMHEALHNHYTQKSLSLSPG
heavy: EVQLVESGGGLVKPGGSLRLSCAASGFTFSSYSMNWVRQAPGKGLEWVSSISSSSSYIYYADSVKGRFTISRDNAKNSLYLQMNSLRAEDTAVYYCARGAPIGAAAGWFDPWGQGTLVTVSSASTKGPSVFPLAPSSKSTSGGTAALGCLVKDYFPEPVTVSWNSGALTSGVHTFPAVLQSSGLYSLSSVVTVPSSSLGTQTYICNVNHKPSNTKVDKKVEPKSCDKTHTCPPCPAPELLGGPSVFLFPPKPKDTLMISRTPEVTCVVVDVSHEDPEVKFNWYVDGVEVHNAKTKPREEQYNSTYRVVSVLTVLHQDWLNGKEYKCKVSNKALPAPIEKTISKAKGQPREPQVCTLPPSRDELTENQVSLTCLVKGFYPSDIAVEWESNGQPENNYKTTPPVLDSDGSFFLYSWLTVDKSRWQQGNVFSCSVMHEALHNHYTQKSLSLSPG
light: DIQMTQSPSSVSASVGDRVTITCRASQGISSWLAWYQQKPGKAPKLLIYAASSLQSGVPSRFSGSGSGTDFTLTISSLQPEDFATYYCQQGVSFPRTFGGGTKVEIKRTVAAPSVFIFPPSDEQLKSGTASVVCLLNNFYPREAKVQWKVDNALQSGNSQESVTEQDSKDSTYSLSSTLTLSKADYEKHKVYACEVTHQGLSSPVTKSFNRGEC
notes: F3' format heterodimer of three chains; human IgG1 Fc with EW-RVT and Y349C/S354C mutations; also called AB0089 Lot AB0089-002; CLEC12A TriNKET AB0089
